Test results taken from patent publication US20210206865A1 (Regeneron, published 2021).
Numbering of substitutions follows the chain as printed.

Columns and labels:
[1] = molecular target: T1, human CD3 on cells (Jurkat cells, primary human CD8+ T cells) (human, UniProt P07766 23-207; P04234 22-171; P20963 22-164; P09693 23-182); assay: flow cytometry, primary human CD8+ T cells, median EC50, n=1
T1 construct: CD3 complex as part of the TCR on T cells; also called hCD3; Jurkat-hCD3
Method: Flow cytometric analysis was utilized to determine binding of BCMA×CD3 bispecific antibodies to human and cynomolgus CD3 (Jurkat cells, mfCD3 engineered Jurkat cells, primary human CD8+ and cynomolgus CD8+ T cells). Briefly, 1e05 cells/well were incubated in the presence of FACS wash with block (PBS+1% filtered FBS+5% mouse serum) with a serial dilution of BCMA×CD3 and control antibodies for 30 minutes on ice. After incubation, the cells were washed twice with cold FACS wash (PBS+1% filtered FBS) and bound antibody was detected by incubating with Alexa647-conjugated anti-human secondary antibody on ice for an additional 30 minutes. Wells containing no antibody or secondary only were used as a control. For the detection of monkey and human T cells, a cocktail of human and cynomolgus cross-reactive antibodies to CD4, CD8 and CD16 was added to the anti-human secondary. After incubation, cells were washed, re-suspended in 200 μL cold PBS containing 1% filtered FBS and analyzed by flow cytometry on a BD FACS Canto II. Cells were gated by FSC-H by FSC-A to select singlet events, followed by side and forward scatters to select for live events. For monkey T cells, additional gating on CD8+/CD16-cells was performed.
EC50 values for FACS binding were calculated using 4-parameter non-linear regression analysis in Prism software.

[2] = molecular target: T2, human BCMA on the surface of cell lines (NCI-H929, MM.1S, OPM-2, RPMI-8226, Daudi, Raji, MOLP-8, U266) (human, UniProt Q02223 1-184); assay: cell-based or functional assay
T2 sequence: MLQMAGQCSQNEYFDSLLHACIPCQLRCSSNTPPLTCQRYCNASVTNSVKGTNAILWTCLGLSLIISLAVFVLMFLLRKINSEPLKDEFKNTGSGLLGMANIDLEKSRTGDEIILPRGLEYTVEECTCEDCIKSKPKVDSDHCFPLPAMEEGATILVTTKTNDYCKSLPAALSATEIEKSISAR

[3] = molecular target: T3, human BCMA-MFC (extracellular domain of human BCMA with C-terminal mFc tag) (human); assay: SPR Biacore, 25 C, mAb captured via anti-hFc
T3 construct: also called hBCMA.mFc
T3 chain: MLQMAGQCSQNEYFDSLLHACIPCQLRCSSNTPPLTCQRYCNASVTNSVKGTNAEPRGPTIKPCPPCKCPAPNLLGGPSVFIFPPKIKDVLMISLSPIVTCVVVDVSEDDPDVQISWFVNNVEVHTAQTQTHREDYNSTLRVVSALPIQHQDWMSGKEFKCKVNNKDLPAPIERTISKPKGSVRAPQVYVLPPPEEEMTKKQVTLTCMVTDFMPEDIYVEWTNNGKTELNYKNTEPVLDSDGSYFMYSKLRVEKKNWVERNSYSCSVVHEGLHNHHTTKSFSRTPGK
Method: (§1) The CM5 Biacore sensor surface was derivatized by amine coupling with a monoclonal mouse anti-human Fc antibody (GE, #BR-1008-39) to capture purified anti-BCMA mAbs and anti-BCMA×anti-CD3 bispecific mAbs. All Biacore binding studies were performed in a buffer composed of 0.01M HEPES pH 7.4, 0.15M NaCl, 3 mM EDTA, 0.05% v/v Surfactant P20 (HBS-ET running buffer). […] Antigen samples were then injected over the anti-BCMA and anti-BCMA×anti-CD3 bispecific mAbs captured surfaces at a flow rate of 30 μL/minute. Antibody-reagent association was monitored for 5 minutes while dissociation in HBS-ET running buffer was monitored for 10 minutes. All of the binding kinetics experiments were performed at 25° C. Kinetic association (kₐ) and dissociation (kd) rate constants were determined by fitting the real-time sensorgrams to a 1:1 binding model using Scrubber 2.0c curve fitting software. Binding dissociation equilibrium constants (KD) and dissociative half-lives (t1/2) were calculated from the kinetic rate constants as: […]

[4] = molecular target: T4, mouse BCMA-MFC (BCMA with C-terminal mFc tag) (mouse); assay: SPR Biacore, 25 C, mAb captured via anti-hFc
T4 construct: Tested at a single concentration of 30 nM; also called mBCMA.mFc
T4 chain: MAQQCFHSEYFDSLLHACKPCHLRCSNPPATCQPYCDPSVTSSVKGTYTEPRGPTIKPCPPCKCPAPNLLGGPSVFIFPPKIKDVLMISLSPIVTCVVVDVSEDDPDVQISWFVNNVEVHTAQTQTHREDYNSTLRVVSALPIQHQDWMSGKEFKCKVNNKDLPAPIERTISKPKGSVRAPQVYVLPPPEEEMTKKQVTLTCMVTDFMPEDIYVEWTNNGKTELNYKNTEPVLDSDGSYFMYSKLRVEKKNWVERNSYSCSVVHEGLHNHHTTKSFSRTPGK
Method: as §1

[5] = molecular target: T5, monkey BCMA-MFC (monkey BCMA with C-terminal mFc tag) (monkey); assay: SPR Biacore, 25 C, mAb captured via anti-hFc
T5 construct: also called mfBCMA.mFc
T5 sequence (chain, as listed by the source limits assumed): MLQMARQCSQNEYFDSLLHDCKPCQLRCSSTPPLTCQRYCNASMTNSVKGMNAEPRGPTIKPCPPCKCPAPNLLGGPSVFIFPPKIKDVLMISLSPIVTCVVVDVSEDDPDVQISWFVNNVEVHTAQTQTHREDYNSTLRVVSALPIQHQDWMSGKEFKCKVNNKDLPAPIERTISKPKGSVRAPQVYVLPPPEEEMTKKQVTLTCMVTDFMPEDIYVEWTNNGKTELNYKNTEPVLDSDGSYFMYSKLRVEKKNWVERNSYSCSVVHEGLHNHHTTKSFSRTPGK
Method: as §1

[6] = molecular target: T6, human BCMA-MMH (extracellular domain of human BCMA with C-terminal myc-myc-hexahistidine tag) (human); assay: SPR Biacore, 25 C, mAb captured via anti-hFc
T6 construct: Monomeric antigen; also called hBCMA.mmh; hBCMA.mmH
T6 chain: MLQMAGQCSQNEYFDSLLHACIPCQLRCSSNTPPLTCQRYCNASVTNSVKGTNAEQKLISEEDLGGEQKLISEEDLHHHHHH
Method: as §1

[7] = molecular target: T7, monkey BCMA-MMH (monkey BCMA with C-terminal myc-myc-hexahistidine tag) (monkey); assay: SPR Biacore, 25 C, mAb captured via anti-hFc
T7 construct: Monomeric antigen; also called mfBCMA.mmh
Method: as §1

[8] = molecular target: T2, human BCMA on the surface of cell lines …; assay: cell-based or functional assay; remark: listed apart in the source

T1 sequence (P07766 23-207 limits assumed, chain 1 of 4): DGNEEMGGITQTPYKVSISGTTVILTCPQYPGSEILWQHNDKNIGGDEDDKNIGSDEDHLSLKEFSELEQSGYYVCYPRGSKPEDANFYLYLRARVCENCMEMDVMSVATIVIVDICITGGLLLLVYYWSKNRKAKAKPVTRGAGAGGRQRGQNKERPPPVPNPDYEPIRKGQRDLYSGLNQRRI
T1 sequence (P04234 22-171 limits assumed, chain 2 of 4): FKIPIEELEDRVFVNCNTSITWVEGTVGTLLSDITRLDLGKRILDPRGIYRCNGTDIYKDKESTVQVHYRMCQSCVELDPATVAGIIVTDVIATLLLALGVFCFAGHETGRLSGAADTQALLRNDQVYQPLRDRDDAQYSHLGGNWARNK
T1 sequence (P20963 22-164 limits assumed, chain 3 of 4): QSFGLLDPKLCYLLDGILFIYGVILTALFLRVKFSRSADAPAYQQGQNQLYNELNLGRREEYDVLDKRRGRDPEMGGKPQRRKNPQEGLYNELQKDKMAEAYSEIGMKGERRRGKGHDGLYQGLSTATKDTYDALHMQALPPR
T1 sequence (P09693 23-182 limits assumed, chain 4 of 4): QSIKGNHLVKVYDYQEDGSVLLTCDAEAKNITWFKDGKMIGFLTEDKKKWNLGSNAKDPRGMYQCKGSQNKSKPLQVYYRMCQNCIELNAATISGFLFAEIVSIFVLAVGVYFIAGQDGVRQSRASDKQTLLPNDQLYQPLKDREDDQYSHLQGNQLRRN

B1: bsAb25441D bispecific antibody (REGN5458), anti-BCMA x anti-CD3 (bispecific antibody, human IgG4 S228P, kappa)
heavy 1: EVQLVESGGGLVQPGGSLRLSCAASGFTFSNFWMTWVRQAPGKGLEWVANMNQDGSEKYYVDSVKGRFTISRDNAKSSLYLQMNSLRAEDTAVYYCARDREYCISTSCYDDFDYWGQGTLVTVSSASTKGPSVFPLAPCSRSTSESTAALGCLVKDYFPEPVTVSWNSGALTSGVHTFPAVLQSSGLYSLSSVVTVPSSSLGTKTYTCNVDHKPSNTKVDKRVESKYGPPCPPCPAPPVAGPSVFLFPPKPKDTLMISRTPEVTCVVVDVSQEDPEVQFNWYVDGVEVHNAKTKPREEQFNSTYRVVSVLTVLHQDWLNGKEYKCKVSNKGLPSSIEKTISKAKGQPREPQVYTLPPSQEEMTKNQVSLTCLVKGFYPSDIAVEWESNGQPENNYKTTPPVLDSDGSFFLYSRLTVDKSRWQEGNVFSCSVMHEALHNHYTQKSLSLSLGK
heavy 2: EVQLVESGGGLVQPGRSLRLSCAASGFTFDDYSMHWVRQAPGKGLEWVSGISWNSGSKGYADSVKGRFTISRDNAKNSLYLQMNSLRAEDTALYYCAKYGSGYGKFYHYGLDVWGQGTTVTVSSASTKGPSVFPLAPCSRSTSESTAALGCLVKDYFPEPVTVSWNSGALTSGVHTFPAVLQSSGLYSLSSVVTVPSSSLGTKTYTCNVDHKPSNTKVDKRVESKYGPPCPPCPAPPVAGPSVFLFPPKPKDTLMISRTPEVTCVVVDVSQEDPEVQFNWYVDGVEVHNAKTKPREEQFNSTYRVVSVLTVLHQDWLNGKEYKCKVSNKGLPSSIEKTISKAKGQPREPQVYTLPPSQEEMTKNQVSLTCLVKGFYPSDIAVEWESNGQPENNYKTTPPVLDSDGSFFLYSRLTVDKSRWQEGNVFSCSVMHEALHNRFTQKSLSLSPGK
light: not shown
notes: Anti-BCMA arm from mAb21581, anti-CD3 arm and common light chain from mAb7221G; also called bsAb25441D9; mAb25441D
EC50 [1]: 32 nM | Median EC50, % Survival of Molp8 target cells, human effector cells [2]: 0.707 nM | Median EC50, % Survival of RPMI8226 target cells, human effector cells [2]: 0.0345 nM | Median EC50, % T activation with Molp8 target cells, human effector cells [2]: 1.1 nM | Median EC50, % T activation with RPMI8226 target cells, human effector cells [2]: 0.0649 nM | 30 nM hBCMA.mFc Bind (RU) [3]: 107 RU | Kd [3]: ≤ 0.0223 nM | t1/2 [3]: ≤ 1160 min | 30 nM mBCMA.mFc Bind (RU) [4]: 2.7 RU | binding result [4]: no binding (tested: 30 nM) | 30 nM mfBCMA.mFc Bind (RU) [5]: 108 RU | Kd [5]: 0.167 nM | t1/2 [5]: 131 min | 90 nM hBCMA.mmh Bind (RU) [6]: 19.9 RU | Kd [6]: 1.06 nM | t1/2 [6]: 13.2 min | 90 nM mfBCMA.mmh Bind (RU) [7]: 14.8 RU | Kd [7]: 49.9 nM | t1/2 [7]: 1.3 min | EC50, Jurkat/NFATLuc reporter activation with MOLP-8 cells [8]: 1.4 nM | EC50, Jurkat/NFATLuc reporter activation with RPMI-8226 cells [8]: 0.61 nM | EC50, Jurkat/NFATLuc reporter activation with Raji cells [8]: 1.6 nM

B2: bsAb25442D bispecific antibody (REGN5459), anti-BCMA x anti-CD3 (bispecific antibody, human IgG4 S228P, kappa)
heavy 1: B1 heavy 1
heavy 2: B1 heavy 2 with K58I, H108Y, L111M
light: not shown
notes: Anti-BCMA arm from mAb21581, anti-CD3 arm and common light chain from mAb7221G20; also called mAb25442D; mAb25442D-A647
EC50 [1]: 4710 nM | Median EC50, % Survival of Molp8 target cells, human effector cells [2]: 1.36 nM | Median EC50, % Survival of RPMI8226 target cells, human effector cells [2]: 0.106 nM | Median EC50, % T activation with Molp8 target cells, human effector cells [2]: 6.47 nM | Median EC50, % T activation with RPMI8226 target cells, human effector cells [2]: 0.75 nM | 30 nM hBCMA.mFc Bind (RU) [3]: 96.8 RU | Kd [3]: ≤ 0.0223 nM | koff [3]: ≤ 1e-05 s⁻¹ | kon [3]: 449000 M⁻¹ s⁻¹ | t1/2 [3]: ≤ 1160 min | 30 nM mBCMA.mFc Bind (RU) [4]: 2.4 RU | binding result [4]: no binding (tested: 30 nM) | 30 nM mfBCMA.mFc Bind (RU) [5]: 97 RU | Kd [5]: 0.148 nM | koff [5]: 7.15e-05 s⁻¹ | kon [5]: 482000 M⁻¹ s⁻¹ | t1/2 [5]: 162 min | 90 nM hBCMA.mmh Bind (RU) [6]: 17 RU | Kd [6]: 1.38 nM | koff [6]: 0.00101 s⁻¹ | kon [6]: 730000 M⁻¹ s⁻¹ | t1/2 [6]: 11.5 min | 90 nM mfBCMA.mmh Bind (RU) [7]: 12.7 RU | Kd [7]: 38.8 nM | koff [7]: 0.00864 s⁻¹ | kon [7]: 223000 M⁻¹ s⁻¹ | t1/2 [7]: 1.3 min | EC50, Jurkat/NFATLuc reporter activation with MOLP-8 cells [8]: 11 nM | EC50, Jurkat/NFATLuc reporter activation with RPMI-8226 cells [8]: 2.6 nM | EC50, Jurkat/NFATLuc reporter activation with Raji cells [8]: 7.4 nM
